Values joined by “and” are separate entries in the source; they are usually repeats but may differ in a detail not shown here. Equal values may be shown once.
Legend:
[1] = biological target: T1, human ANGPT2 (SPR analyte) (human, UniProt O15123 275-496, limits assumed); assay: SPR (ProteOn XPR36), antibody captured on Protein A/G, ANGPT2 as analyte, 1:1 Langmuir fit
T1 construct: domain: FLD domain; also called HuANGPT2; human ANGPT2 FLD domain
T1 sequence (looked up): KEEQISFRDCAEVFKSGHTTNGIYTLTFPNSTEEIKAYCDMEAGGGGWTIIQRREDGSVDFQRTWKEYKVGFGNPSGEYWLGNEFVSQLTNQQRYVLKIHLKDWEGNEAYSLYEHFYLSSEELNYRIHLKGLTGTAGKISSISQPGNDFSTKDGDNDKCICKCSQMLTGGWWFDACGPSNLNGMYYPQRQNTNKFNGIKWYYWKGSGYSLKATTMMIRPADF
Protocol: (§1) The binding affinity to the various ANGPT2 analytes is determined by surface plasmon resonance (SPR) using a ProteOn XPR36 (Bio-Rad). Unless otherwise stated, all reagents are obtained from Bio-Rad. The running buffer for all assays and dilutions (except where stated) is phosphate buffered saline (PBS)/ethylenediamine tetraacetic acid (EDTA) with 0.01% Tween20 (PBS-T-EDTA). PBS-T-EDTA is prepared by adding 100 μl of 100% Tween20 to 2 L of PBS-T-EDTA with an initial concentration of 0.005% Tween20 to make a final Tween20 concentration of 0.01%. The general linearized model (GLM) sensorchip is normalized, pre-conditioned, and activated with an equal mixture of 1-ethyl-3-[3-dimethylaminopropyl]carbodiimide (EDC)/N-hydroxysulfosuccinimide (s-NHS) in the horizontal direction for 300 sec at a flow rate of 30 μl/min. Immobilization is then is done with Recombinant Protein A/G (Thermo Scientific) (60 μg/ml in 10 mM acetate pH 4.5) in the horizontal direction for 300 sec at a flowrate of 30 μl/min resulting in about 4370-4875 response units (RUs) of Protein A/G on the surface. The sensorchip is then deactivated with 1M ethanolamine HCl in the horizontal direction for 300 sec at a flowrate of 30 μl/min. The sensorchip is stabilized with 18 sec of 0.85% phosphoric acid at a flowrate of 100 μl/min 3 times horizontally and 3 times vertically.
(§2) Each ANGPT2 antibody is captured on the Protein A/G surface vertically for 300 sec at a flowrate of 30 μl/min resulting in a capture level of about 2500 RU. The baseline is stabilized by injecting PBS-T-EDTA for 60 sec at a flowrate of 100 μl/min horizontally with dissociation of 120 sec. The analyte (e.g., HuANGPT2) is injected horizontally over the captured antibody for 300 sec at a flowrate of 30 μl/min and a dissociation for 1800 sec. […] The surface is regenerated by injecting 0.85% phosphoric acid for 18 sec at a flowrate of 100 μl/min one time horizontally and one time vertically. PBS-T-EDTA is injected for 60 sec at a flowrate of 100 μl/min one time vertically and one time horizontally.
(§3) The interspot (interactions with sensor surface) and blank (PBS-T-EDTA with 0.01% Tween20 or 0 nM of analyte (here HuANGPT2)) are subtracted from the raw data.

[2] = biological target: T2, cynomolgus (cyno) ANGPT2 (cynomolgus, UniProt A0A2K5VNX6 275-496); assay: as above
T2 construct: domain: FLD domain; also called cyno ANGPT2 FLD domain
T2 sequence: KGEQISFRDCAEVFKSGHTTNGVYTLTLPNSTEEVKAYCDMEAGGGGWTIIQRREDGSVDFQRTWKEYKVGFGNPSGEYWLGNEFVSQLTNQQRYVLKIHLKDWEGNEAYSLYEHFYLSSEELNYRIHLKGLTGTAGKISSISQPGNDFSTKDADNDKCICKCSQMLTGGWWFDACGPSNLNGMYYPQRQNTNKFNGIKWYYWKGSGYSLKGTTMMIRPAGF
Protocol: as §1, §2, §3

[3] = biological target: T3, rat ANGPT2 (rat, UniProt O35462 275-496, limits assumed); assay: SPR (ProteOn XPR36), antibody captured on Protein A/G, rat ANGPT2 as analyte
T3 construct: domain: FLD domain; also called rat ANGPT2 FLD domain
T3 sequence (looked up): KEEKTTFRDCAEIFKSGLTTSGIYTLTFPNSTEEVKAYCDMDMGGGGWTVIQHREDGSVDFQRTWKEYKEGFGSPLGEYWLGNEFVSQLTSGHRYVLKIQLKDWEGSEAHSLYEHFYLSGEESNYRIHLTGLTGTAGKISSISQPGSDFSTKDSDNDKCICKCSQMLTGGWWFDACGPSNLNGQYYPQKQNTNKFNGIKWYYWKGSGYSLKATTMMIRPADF
Protocol: as §1
as §2, with “horizontally. […]” for “horizontally.”

[4] = biological target: T4, rhAngiopoietin-2 (R&D systems cat 623-AN/CF) (human, UniProt O15123 19-496, limits assumed); assay: cell-based or functional assay
T4 sequence (looked up): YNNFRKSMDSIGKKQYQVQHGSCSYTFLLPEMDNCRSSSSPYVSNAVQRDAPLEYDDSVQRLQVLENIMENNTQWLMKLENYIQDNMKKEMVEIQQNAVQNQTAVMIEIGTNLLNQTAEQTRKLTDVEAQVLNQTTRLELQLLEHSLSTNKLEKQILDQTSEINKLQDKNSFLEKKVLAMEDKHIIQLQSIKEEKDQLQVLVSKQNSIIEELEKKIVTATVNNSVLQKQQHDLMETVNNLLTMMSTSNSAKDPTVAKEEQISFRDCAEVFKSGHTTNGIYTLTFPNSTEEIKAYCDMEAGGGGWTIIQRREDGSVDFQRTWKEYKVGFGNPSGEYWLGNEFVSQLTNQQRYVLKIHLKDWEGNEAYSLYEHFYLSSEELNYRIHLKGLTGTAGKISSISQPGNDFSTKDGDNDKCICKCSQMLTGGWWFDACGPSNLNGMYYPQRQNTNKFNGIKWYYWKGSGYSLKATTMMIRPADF

[5] = biological target: T5, Human ANGPT2 Dimer (CC-FLD) (human, UniProt O15123 74-496, limits assumed); assay: flow cytometry blocking assay: antibody titrated against His-tagged human ANGPT2 dimer (CC-FLD) binding to HEK293 human Tie2 cells
T5 construct: domain: CC-FLD; also called ANGPT2 protein with His-tag; not shown: His-tag
T5 sequence (looked up): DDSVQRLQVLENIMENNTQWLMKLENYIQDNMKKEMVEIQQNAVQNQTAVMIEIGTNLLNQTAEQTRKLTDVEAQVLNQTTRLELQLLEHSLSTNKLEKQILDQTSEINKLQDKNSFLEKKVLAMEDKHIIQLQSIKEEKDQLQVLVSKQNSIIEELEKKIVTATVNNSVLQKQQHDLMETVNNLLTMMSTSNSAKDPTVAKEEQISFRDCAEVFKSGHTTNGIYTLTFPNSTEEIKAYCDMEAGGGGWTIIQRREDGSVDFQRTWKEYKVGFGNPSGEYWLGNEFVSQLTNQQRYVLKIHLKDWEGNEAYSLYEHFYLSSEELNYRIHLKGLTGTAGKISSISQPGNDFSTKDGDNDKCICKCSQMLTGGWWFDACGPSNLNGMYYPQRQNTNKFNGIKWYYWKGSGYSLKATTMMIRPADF
Protocol: Human ANGPT2 Dimer (CC-FLD) is pre-incubated with the testing antibodies. The ANGPT2/Antibody mixture is then incubated with HEK293 human Tie2 cells at 4° C. After washing, the cells are stained with anti-His-AF647 (from GenScript) for detection of the His-tag on the ANGPT2 protein. The binding of the secondarily labelled ANGPT2 to human Tie2 cells is detected by FLOW cytometry. The average of the duplicate values for each concentration point is used to derive the curve fit graphs. Antibodies that prevent ANGPT2 from binding to the Tie2 cells are considered blocking antibodies. The results are shown in FIGS. 3A-3G and the EC50 values are shown in Table 5 based on the average of duplicate values.

B1: chimeric lead CL-209881 (antibody, V domains shown)
VH: QVQLKQSGAELVKPGSSVKISCRASGYIFIDYFINWVKQRPGQGLEWIGKIGPGSGSSSSNEKFKGKATLTADKSSSTAYMQLSSLTSEDSAVYFCAREAFDYDGDYYGMAYWGQGTSVTVSS
VL: DIVMTQSPSSLSVSAGEKVTMSCKSSQSLLNSGNQKNFLAWYQQKPGQPPKLLIYGASTRESGVPDRFTGSGSGTDFTLTITSVQAEDLAVYYCQNDHSYPITFGSGTKLEIK
notes: Chimeric antibody with murine variable domains; the constant regions of the tested antibody are not
Kd [1]: 0.155 nM | koff [1]: 2.34e-05 s⁻¹ | kon [1]: 151000 M⁻¹ s⁻¹ | Kd [2]: 0.24 nM | koff [2]: 3.93e-05 s⁻¹ | kon [2]: 164000 M⁻¹ s⁻¹

B2: Nesvacumab analog (Regeneron) (antibody, V domains shown)
VH: EVQLVESGGGLVQPGGSLRLSCAASGFTFSSYDIHWVRQATGKGLEWVSAIGPAGDTYYPGSVKGRFTISRENAKNSLYLQMNSLRAGDTAVYYCARGLITFGGLIAPFDYWGQGTLVTVSS
VL: EIVLTQSPGTLSLSPGERATLSCRASQSVSSTYLAWYQQKPGQAPRLLIYGASSRATGIPDRFSGSGSGTDFTLTISRLEPEDFAVYYCQHYDNSQTFGQGTKVEIKR
notes: also called analog of REGN910 (nesvacumab); Nevescumab analog
Kd [3]: 0.159 nM

B3: MEDI3617 analog (Medimmune) (antibody, human IgG1, kappa, V domains shown)
VH: QVQLVESGGGVVQPGRSLRLSCAASGFTFTNYGMHWVRQAPGKGLEWVAVISHDGNNKYYVDSVKGRFTISRDNSKNTLYLQMNSLRAEDTAVYYCAREGIDFWSGLNWFDPWGQGTLVTVSS
VL: EIVLTQSPGTLSLSPGERATLSCRASQSITGSYLAWYQQKPGQAPRLLITGASSWATGIPDRFSGSGSGTDFTLTISRLEPEDFAVYYCQQYSSSPITFGQGTRLEIKR
notes: Based on the description in U.S. Pat. No. 8,507,656; also called MED3617 analog; analog of MED3617
Tie2 phosphorylation functional assay, EC50 [4]: 2.7 nM | Kd [1]: 27 nM | koff [1]: 0.0166 s⁻¹ | kon [1]: 614000 M⁻¹ s⁻¹

B4: LC06 (Roche) (antibody, human IgG1, lambda, V domains shown)
VH: not shown
VL: QPGLTQPPSVSVAPGQTARITCGGNNIGSKSVHWYQQKPGQAPVLVVYDDSDRPSGIPERFSGSNSGNTATLTISRVEAGDEADYYCQVWDSSSDHYVFGTGTKVTVLG
notes: Based on the description in U.S. Pat. No. 9,340,609
Tie2 phosphorylation functional assay, EC50 [4]: 1.3 nM | Kd [1]: 12 nM

B5: ANGPT2-opt-31 (humanized) (antibody, human IgG1, kappa, V domains shown)
VH: QVQLVQSGAEVKKPGSSVKVSCKASGYIFIDYFINWVRQAPGQGLEWMGKIGPGSGSSSSNEKFKGRVTITADKSTSTAYMELSSLRSEDTAVYYCAREAFDYDGDYYGMAYWGQGTLVTVSS
VL: EIVMTQSPATLSVSPGERATLSCKSSQSLLSSGNQKSFLAWYQQKPGQAPRLLIYGASTRESGIPARFSGSGSGTEFTLTISSLQSEDFAVYYCQNDHSYPITFGQGTKLEIKR
notes: also called Ang2-opt-31
Tie2 phosphorylation functional assay, EC50 [4]: 3.8 nM and 4.4 nM | Kd [1]: 0.091 nM | koff [1]: 1.14e-05 s⁻¹ | kon [1]: 125000 M⁻¹ s⁻¹ | Kd [2]: 0.145 nM | koff [2]: 1.96e-05 s⁻¹ | kon [2]: 135000 M⁻¹ s⁻¹ | EC50 [5]: 13 nM

B6: ANGPT2-opt-2 (humanized) (antibody, human IgG1, kappa, V domains shown)
VH: QVQLVQSGAEVKKPGSSVKVSCKASGYIFIEYFINWVRQAPGQGLEWMGKIGPGSGSSSSNEKFKGRVTITADKSTSTAYMELSSLRSEDTAVYYCAREAFDYEGDYYGMAYWGQGTLVTVSS
VL: EIVMTQSPATLSVSPGERATLSCKSSQSLLASGNQKNFLAWYQQKPGQAPRLLIYGASTRESGIPARFSGSGSGTEFTLTISSLQSEDFAVYYCQNDHSYPITFGQGTKLEIKR
notes: also called Ang2-opt-2; ANGP12-opt-2
Tie2 phosphorylation functional assay, EC50 [4]: 1.8 nM and 1.9 nM | Kd [3]: ≥ 118 nM | Kd [1]: 0.649 nM | koff [1]: 8.11e-05 s⁻¹ | kon [1]: 125000 M⁻¹ s⁻¹ | Kd [2]: 0.626 nM | koff [2]: 8.45e-05 s⁻¹ | kon [2]: 135000 M⁻¹ s⁻¹ | EC50 [5]: 14.8 nM

B7: ANGPT2-opt-1 (humanized) (antibody, human IgG1, kappa, V domains shown)
VH: QVQLVQSGAEVKKPGSSVKVSCKASGYIFIDYFINWVRQAPGQGLEWMGKIGPGSGSSSSNEKFKGRVTITADKSTSTAYMELSSLRSEDTAVYYCAREAFDYEGDYYGMAYWGQGTLVTVSS
VL: EIVMTQSPATLSVSPGERATLSCKSSQSLLASGNQKNFLAWYQQKPGQAPRLLIYGASTRESGIPARFSGSGSGTEFTLTISSLQSEDFAVYYCQNDHSYPITFGQGTKLEIKR
notes: also called Ang2-opt-1
Tie2 phosphorylation functional assay, EC50 [4]: 3 nM and 3.2 nM | Kd [1]: 0.294 nM | koff [1]: 4.25e-05 s⁻¹ | kon [1]: 144000 M⁻¹ s⁻¹ | Kd [2]: 0.36 nM | koff [2]: 5.48e-05 s⁻¹ | kon [2]: 152000 M⁻¹ s⁻¹ | EC50 [5]: 13.2 nM

B8: ANGPT2-opt-19 (humanized) (antibody, human IgG1, kappa, V domains shown)
VH: QVQLVQSGAEVKKPGSSVKVSCKASGYIFIDYFINWVRQAPGQGLEWMGKIGPGSGSSSSNEKFKGRVTITADKSTSTAYMELSSLRSEDTAVYYCAREAFDYDGDYYGMAYWGQGTLVTVSS
VL: EIVMTQSPATLSVSPGERATLSCRASQSVLSSGNQKSFLAWYQQKPGQAPRLLIYGASTRETGIPARFSGSGSGTEFTLTISSLQSEDFAVYYCQQDHSYPITFGQGTKLEIKR
notes: also called Ang2-opt-19
Tie2 phosphorylation functional assay, EC50 [4]: 5 nM and 4.6 nM | Kd [3]: ≥ 118 nM | Kd [1]: 0.712 nM | koff [1]: 5.83e-05 s⁻¹ | kon [1]: 81800 M⁻¹ s⁻¹ | Kd [2]: 0.844 nM | koff [2]: 7.4e-05 s⁻¹ | kon [2]: 87700 M⁻¹ s⁻¹ | EC50 [5]: 15.1 nM
